The values below come from the supplement of paper PMC10567573.

The data set in a line: protein stability index of a GFP-peptide fusion (GPS, HEK-293T) (PSI 1-6); higher = more stable.
Setting [1] is: treatment: DMSO, c terminus: a fixed tail appended.
Setting [2] is: treatment: MLN4924 1 uM, 8 h, c terminus: a fixed tail appended.
Where [3] appears, read: treatment: DMSO, c terminus: native.
The mark [4] stands for this setting: treatment: MLN4924 1 uM, 8 h, c terminus: native.

± gives the standard deviation.
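Note: 24-mer peptide tiles fused after GFP, lentivirally expressed, FACS-sorted into six equal bins by GFP/DsRed ratio, decoded by Illumina sequencing, PSI is the read-weighted mean bin number.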

The sequence MIAFFFIIIYLGPMVLMIIVMCVQ [CDS2] came in with a protein stability index under setting [1] of 3.3 ± 0.31 and a protein stability index under setting [2] of 3.12 ± 0.93. As for GELLLDVAWHPVRPIIASISSGVV [RBBP5], the protein stability index runs as follows: under setting [1], 2.3 ± 0.54; under setting [2], 2.42 ± 0.59. The like results for VTSVSIELEKNFSNFPRQYFALRK [TRIM39] were, in that order, 2.47 ± 0.25 and 2.5 ± 0.15.

Consider GLKGRTLYPAVSAVWGQCQVRIRY [SPSB2], for which the protein stability index is, setting by setting: under setting [1], 2.98 ± 0.77; under setting [2], 2.67 ± 0.56. The like results for RRHCPLPQATFWGLVTPRSWSCHT [SOAT2] were, in that order, 2.46 ± 0.4 and 2.25 ± 0.17.

For the sequence CKKGDPKHGKRKRGRPRKLSKEYW [ELF3], the protein stability index is 3.56 ± 0.13 under setting [1] and 3.85 ± 0.22 under setting [2]. As for LTLSGIKEDNSLLNQGFLQAKPEK [MYBL2], the protein stability index reads like this: under setting [1], 4.53 ± 0.39; under setting [2], 4.61 ± 0.099. Turning to ERYDPNIDQWSMLGDMQTAREGAG [KLHL12], the protein stability index was 4.2 ± 0.25 under setting [1] and 4.33 ± 0.19 under setting [2].

For the sequence AAANGGHVKIVKLLLAHKADVNAQ [ANKRD17], the protein stability index came to 2.51 ± 0.31 under setting [1] and 2.68 ± 0.18 under setting [2].

Take LVSIRNNRNLQKFSLFGDISVLQQ [FBXO33]: the protein stability index runs as follows: under setting [1], 2.17 ± 0.14; under setting [2], 2.09 ± 0.29. In the same order, the values of PLAQNERCLHMFLQDEIIDKSYTP [SNX3] are 2.97 ± 0.24 and 3.39 ± 0.22.

On to SIIAVAMQRGARLPAEVAGLSQVL [POMT2], for which the protein stability index reads like this: under setting [1], 2.35 ± 0.59; under setting [2], 2.01 ± 0.18.

For KRRRKSCQACRFMKCLKVGMLKEG [ESRRG], the protein stability index stood at 2.67 ± 0.2 under setting [1] and 2.78 ± 0.25 under setting [2]. The like results for TTGLQVPSAVRCLQKRGSATSSSN [FSD1] were, in that order, 4.13 ± 0.12 and 3.99 ± 0.14. The like results for GLLDLNNAILQLVKKYKSMKLEKE [ESRRG] were, in that order, 2.65 ± 0.14 and 2.9 ± 0.82. The like results for HHKVYDLTKFLEEHPGGEEVLREQ [CYB5A] were, in that order, 4.44 ± 0.27 and 4.65 ± 0.19. PFPAGPLAVAGGPRKTAAPVNALV [ESRRA]: the protein stability index is, setting by setting: under setting [1], 3.7 ± 0.34; under setting [2], 3.61 ± 0.31.

As for MELPSGPGPERLFDSHRLPGDCFL [AUP1], the protein stability index runs as follows: under setting [1], 3.36 ± 0.36; under setting [2], 3.27 ± 0.35. In the case of KFSNIVDKFVIVDCRYPYEYEGGH [CDC25B], the protein stability index reads like this: under setting [1], 2.47 ± 0.16; under setting [2], 2.25 ± 0.62. In the same order, the values of HRRGLGVDSKPELQRVLEHRRRNQ [FAM107A] are 4.01 ± 0.4 and 4.11 ± 0.31. The like results for SPRLTFQCLEDLVNHYSEVADGLC [SLA] were, in that order, 2.79 ± 0.45 and 3.19 ± 0.54. Regarding YPNYEFISDNSISWSAGLHNRYTE [FUT8], the protein stability index came out at 2.51 ± 0.1 under setting [1] and 2.72 ± 0.36 under setting [2]. As for KLKNLRRKQRRRERWLQKQGKYSG [RNF180], the protein stability index is 3.83 ± 0.33 under setting [1] and 3.93 ± 0.4 under setting [2]. For FKHPVIGVHVRRTDKVGTEAAFHP [FUT8], the protein stability index under setting [1] was determined as 2.98 ± 0.31 and the protein stability index under setting [2] worked out at 3.13 ± 0.23. With PEPPPVSFQPYHPLHFRGSNGMS [TENT5D], the protein stability index runs as follows: under setting [3], 3.77 ± 0.29; under setting [4], 3.91 ± 0.22. On to MCSTLEHNCAHFCINIPGSYVCRC [MATN2], for which the protein stability index was 3.18 ± 0.33 under setting [1] and 3.19 ± 0.44 under setting [2]. Turning to ACCGGFLEVADFLIKAGADIELGC [ANKRD17], under setting [2], the protein stability index is 3.05 ± 1.1.

Turning to STQEPQSPREGEELKPEDKDPRDP [GNAS], the protein stability index by setting is: under setting [1], 5.59 ± 0.34; under setting [2], 5.42 ± 0.48. Consider NLISLLALRVLAEQNIIPSATNVT [TENT5C], for which the protein stability index runs as follows: under setting [1], 2.94 ± 0.39; under setting [2], 3.12 ± 0.36. In turn, ASWMYQLQHGDQLSICFTCFKAAF [TEX19] gave a protein stability index under setting [1] of 2.59 ± 0.42 and a protein stability index under setting [2] of 2.51 ± 0.53.

YSSGEFSSGRKWGDDAPKEEVDTG [INTS4]: the protein stability index runs as follows: under setting [1], 3.1 ± 0.48; under setting [2], 3.97 ± 0.56. In the case of TGITLLRVKFKSQQHRQGRSHHLE [PTGFR], the protein stability index runs as follows: under setting [1], 2.24 ± 0.29; under setting [2], 2.44 ± 0.34. HVHCFTCAACKTPIRNRAFYMEEG [PDLIM7]: the protein stability index runs as follows: under setting [1], 2.24 ± 0.11; under setting [2], 2.47 ± 0.23. In the same order, the values of RMTSSPSSIPRRDDFFRHESGEHF [RAD54B] are 3.67 ± 0.25 and 3.68 ± 0.14. For RDRVGHKSIPMRNLRARPAKCLS [SERPINB5], the protein stability index under setting [3] was 2.34 ± 0.23 and the protein stability index under setting [4] was 2.48 ± 0.24.

As to GYWRVRLWNGDKYAATTTPFTPLH [TRIM39], the protein stability index under setting [1] was determined as 2.08 ± 0.42 and the protein stability index under setting [2] amounted to 2.35 ± 0.93. In the same order, the values of FIDGKFLPCSSYIDSYDPSTGEVY [ALDH8A1] are 2.44 ± 1.2 and 2.66 ± 0.11. The like results for KGYLFHTVAGKHQDLKYISPEIMA [CDC25A] were, in that order, 2.32 ± 0.34 and 2.43 ± 0.23. The like results for AQILPSRVQGGCYRFDSSSCSSED [DRICH1] were, in that order, 4.05 ± 0.26 and 3.92 ± 0.35.

In turn, TWWRVRNAANRTGYVPSNYVERKN [NCK2] had a protein stability index under setting [1] of 2.86 ± 0.14 and a protein stability index under setting [2] of 3.06 ± 0.27. With SSWKHGSGTQYVSTRQTQSWTAVT [C18orf25], the protein stability index by setting is: under setting [1], 2.5 ± 0.11; under setting [2], 2.52 ± 0.47. For PGSQALPAPALAPDQLPQNNTLVA [FBXO28], the protein stability index is, setting by setting: under setting [1], 4.74 ± 0.35; under setting [2], 4.88 ± 0.37. In the same order, the values of TAEDSNDIYILPSDNSGQVSPPES [BCL2L13] are 5.2 ± 0.26 and 5.21 ± 0.1. Turning to PDMSVTKVVVHKETEITPEDGED [EPB41L3], the protein stability index under setting [3] came out at 5.5 ± 0.35 and the protein stability index under setting [4] is 5.57 ± 0.29.

DFYRCGYCKNESGSRSNGMWAHSM [ATE1] showed a protein stability index under setting [1] of 2.56 ± 0.59 and a protein stability index under setting [2] of 2.2 ± 0.13. For KESLCAKEEKCQGKGDDSETDKNN [KCNA4], the protein stability index is, setting by setting: under setting [1], 5.62 ± 0.16; under setting [2], 5.42 ± 0.1. For DYPVQVAPLSNGLCCAFSTDGSVL [WSB1], the protein stability index worked out at 2.66 ± 0.27 under setting [1] and 2.96 ± 0.32 under setting [2]. The like results for SQDLLPPPNPYPLPQEHSQIYHCT [TBX5] were, in that order, 4.02 ± 0.22 and 4.11 ± 0.22. In the same order, the values of EELLWRKVYYEVIQLIKTNKKHIH [SMG5] are 2.8 ± 0.59 and 2.4 ± 0.39. The like results for KYPPDRECIYIIEAAPRQCIELYF [NETO1] were, in that order, 3.13 ± 0.77 and 2.7 ± 1.3. As for RQGIQLNKTPGAPESSALQPPPQS [WAS], the protein stability index was 4.74 ± 0.6 under setting [1] and 4.8 ± 0.094 under setting [2]. The like results for RELTGLKALYETELADARRALDDT [LMNB1] were, in that order, 4.76 ± 0.31 and 4.77 ± 0.094. As for GYGIYYFIYSTWKGRTIYLEDIYV [SAT2], the protein stability index under setting [1] was 2.9 ± 0.16 and the protein stability index under setting [2] came out at 2.78 ± 0.43. Regarding VRFDGYVIDGATALWCAAGAGHFE [FEM1B], the protein stability index under setting [1] worked out at 2.91 ± 0.6 and the protein stability index under setting [2] came out at 2.92 ± 0.64. The like results for MATITCTRFTEEYQLFEELGKGAF [CAMK2A] were, in that order, 2.35 ± 0.23 and 2.44 ± 0.4. In the same order, the values of KAVMKTSVLLSWEIPENYNSAMPF [PTPRD] are 2.26 ± 0.67 and 2.26 ± 0.43. The like results for QPAGNRRGQARRLAPNFRWAIPNR [BEX3] were, in that order, 3.89 ± 0.14 and 3.75 ± 0.32.

For the sequence NGVNVLDEPYEKVVDRIQSSGKNV [PDZK1], the protein stability index under setting [1] amounted to 5.03 ± 0.3.

Take CKNSNTVYCKLESCPSRGQGKPS [SPRY1]: the protein stability index reads like this: under setting [3], 3.789 ± 0.011; under setting [4], 3.97 ± 0.22. On to VQGIGIPLVTAIEIVSIWILSFIL [EDNRA], for which the protein stability index was 3.02 ± 0.63 under setting [1] and 2.42 ± 0.49 under setting [2].

For LPLPPPPPEPLSQVSMWDQRWQDH [APBB1IP], the protein stability index under setting [1] is 3.19 ± 0.78 and the protein stability index under setting [2] was determined as 3.54 ± 0.57. In the same order, the values of GPRFLAYFGSFATVGLLWFAHHSL [TMEM175] are 3.17 ± 0.2 and 3 ± 0.27. As for AWTLINLSFAAKQRELHSHVTNAM [DHCR7], the protein stability index is, setting by setting: under setting [1], 3.12 ± 0.34; under setting [2], 3.05 ± 0.24. As to KNLFRLEMDMVVFRPEMKKHSWCL [N4BP2L1], the protein stability index by setting is: under setting [1], 2.48 ± 0.48; under setting [2], 2.4 ± 0.45. The like results for HHVEREKDHSSSRPSSPRPQKASP [BTBD10] were, in that order, 5.36 ± 0.28 and 5.54 ± 0.14. The like results for ALGAMWKLHKSQLSQALNGLSDRA [TRIM9] were, in that order, 2.21 ± 0.29 and 2.34 ± 0.35. The like results for ADAVNLTIPASLDLSPLLGFWQLP [PLAGL1] were, in that order, 2.28 ± 0.27 and 2.28 ± 0.23. RAQEREQIKALNNKFASFIDKVRF [KRT71]: the protein stability index by setting is: under setting [1], 2.1 ± 0.11; under setting [2], 2.2 ± 0.3. Consider NKHLTTHQGIKPYKCSWCGKSFSQ [ZNF75A], for which the protein stability index is 2.35 ± 0.45 under setting [1] and 2.06 ± 0.37 under setting [2].

As to GDSDSALDSVSPCPSSPKQIHLDV [DLC1], the protein stability index reads like this: under setting [1], 4.8 ± 0.37; under setting [2], 4.66 ± 0.35. AIFIMSLNKRHSSGDGNSKLKSE [MFSD9]: the protein stability index came out at 2.64 ± 0.27 under setting [3] and 2.22 ± 0.15 under setting [4]. Turning to NIQIIEYEKKQTLGQNDTGFSCDG [BTBD1], the protein stability index runs as follows: under setting [1], 4.36 ± 0.4; under setting [2], 4.034 ± 0.016.

Consider RYVYRFVCDLQSLLGYTPEELHAM [ETS1], for which the protein stability index reads like this: under setting [1], 2.69 ± 0.65; under setting [2], 2.5 ± 0.5.
